The target of the test is YFP-PAX5-Foldon (not stated | phage T4) (UniProt P10104). As to the kind of experiment: SEC. (Size exclusion chromatography separates by hydrodynamic size, large species first.)

For the substance “YFP-PAX5-Foldon (from UniProt P10104 458-484)”, the stoichiometry N (usually the number of molecules, sites or subunits per partner or assembly) came out at 3.
